Laboratory results published in IntAct's records for PubMed 11955446.

B1: Protein BCL9 homolog (Drosophila melanogaster (Fruit fly)), Q961D9 (parent)
chain: MLSTTMPRSPTQQQPQPNSDASSTSASGSNPGAAIGNGDSAASRSSPKTLNSEPFSTLSPDQIKLTPEEGTEKSGLSTSDKAATGGAPGSGNNLPEGQTMLRQNSTSTINSCLVASPQNSSEHSNSSNVSATVGLTQMVDCDEQSKKNKCSVKDEEAEISSNKAKGQAAGGGCETGSTSSLTVKEEPTDVLGSLVNMKKEERENHSPTMSPVGFGSIGNAQDNSATPVKIERISNDSTTEKKGSSLTMNNDEMSMEGCNQLNPDFINESLNNPAISSILVSGVGPIPGIGVGAGTGNLLTANANGISSGSSNCLDYMQQQNHIFVFSTQLANKGAESVLSGQFQTIIAYHCTQPATKSFLEDFFMKNPLKINKLQRHNSVGMPWIGMGQVGLTPPNPVAKITQQQPHTKTVGLLKPQFNQHENSKRSTVSAPSNSFVDQSDPMGNETELMCWEGGSSNTSRSGQNSRNHVDSISTSSESQAIKILEAAGVDLGQVTKGSDPGLTTENNIVSLQGVKVPDENLTPQQRQHREEQLAKIKKMNQFLFPENENSVGANVSSQITKIPGDLMMGMSGGGGGSIINPTMRQLHMPGNAKSELLSATSSGLSEDVMHPGDVISDMGAVIGCNNNQKTSVQCGSGVGVVTGTTAAGVNVNMHCSSSGAPNGNMMGSSTDMLASFGNTSCNVIGTAPDMSKEVLNQDSRTHSHQGGVAQMEWSKIQHQFFEERLKGGKPRQVTGTVVPQQQTPSGSGGNSLNNQVRPLQGPPPPYHSIQRSASVPIATQSPNPSSPNNLSLPSPRTTAAVMGLPTNSPSMDGTGSLSGSVPQANTSTVQAGTTTVLSANKNCFQADTPSPSNQNRSRNTGSSSVLTHNLSSNPSTPLSHLSPKEFESFGQSSAGDNMKSRRPSPQGQRSPVNSLIEANKDVRFAASSPGFNPHPHMQSNSNSALNAYKMGSTNIQMERQASAQGGSVQFSRRSDNIPLNPNSGNRPPPNKMTQNFDPISSLAQMSQQLTSCVSSMGSPAGTGGMTMMGGPGPSDINIEHGIISGLDGSGIDTINQNNCHSMNVVMNSMGPRMLNPKMCVAGGPNGPPGFNPNSPNGGLRENSIGSGCGSANSSNFQGVVPPGARMMGRMPVNFGSNFNPNIQVKASTPNTIQYMPVRAQNANNNNNNGANNVRMPPSLEFLQRYANPQMGAVGNGSPICPPSASDGTPGMPGLMAGPGAGGMLMNSSGEQHQNKITNNPGASNGINFFQNCNQMSIVDEEGGLPGHDGSMNIGQPSMIRGMRPHAMRPNVMGARMPPVNRQIQFAQSSDGIDCVGDPSSFFTNASCNSAGPHMFGSAQQANQPKTQHIKNIPSGMCQNQSGLAVAQGQIQLHGQGHAQGQSLIGPTNNNLMSTAGSVSATNGVSGINFVGPSSTDLKYAQQYHSFQQQLYATNTRSQQQQHMHQQHQSNMITMPPNLSPNPTFFVNK
partner: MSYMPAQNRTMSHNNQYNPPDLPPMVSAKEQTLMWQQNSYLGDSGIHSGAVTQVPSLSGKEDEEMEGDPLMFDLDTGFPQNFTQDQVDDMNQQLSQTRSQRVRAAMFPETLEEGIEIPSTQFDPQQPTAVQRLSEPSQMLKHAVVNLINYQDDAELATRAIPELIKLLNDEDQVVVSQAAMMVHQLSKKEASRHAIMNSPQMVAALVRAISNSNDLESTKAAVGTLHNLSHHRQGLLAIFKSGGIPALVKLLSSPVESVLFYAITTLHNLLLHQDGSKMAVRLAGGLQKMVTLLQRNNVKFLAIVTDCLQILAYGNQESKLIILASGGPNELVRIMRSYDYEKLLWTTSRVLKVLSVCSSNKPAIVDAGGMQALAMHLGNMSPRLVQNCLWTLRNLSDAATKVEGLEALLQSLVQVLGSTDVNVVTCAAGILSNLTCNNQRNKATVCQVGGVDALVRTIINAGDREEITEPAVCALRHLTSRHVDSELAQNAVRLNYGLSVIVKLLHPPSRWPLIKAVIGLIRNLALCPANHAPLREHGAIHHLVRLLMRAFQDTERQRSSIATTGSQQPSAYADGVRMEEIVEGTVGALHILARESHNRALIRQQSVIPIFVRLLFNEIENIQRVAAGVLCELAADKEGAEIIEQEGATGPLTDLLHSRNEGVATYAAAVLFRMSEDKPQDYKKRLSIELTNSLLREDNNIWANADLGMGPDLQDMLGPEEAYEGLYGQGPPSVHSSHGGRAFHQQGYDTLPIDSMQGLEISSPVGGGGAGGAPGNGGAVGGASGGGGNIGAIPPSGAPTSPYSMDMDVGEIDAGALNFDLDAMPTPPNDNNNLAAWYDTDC

Variants of: B1
Settings: with arm_drome arm

effect of a mutation on the interaction | Variant
decreasing interaction | L534F
